# Data taken from patent publication US20140274797.
# System: specific peptide sequence that is a substrate for MMP-9 (Lys-Gly-Pro-Arg-Ser-Leu-Ser-Gly-Lys)
substance,measurement,value
metalloproteinase-9 (MMP-9),"cleavage of the donor/acceptor-labelled peptide (loss of FRET, colour change)",Addition of MMP-9 cleaves the peptide separating donor and acceptor
